T1: HHV8 protein KCP expressed on cells (gD-GPI construct or full-length protein) (Human herpesvirus 8, UniProt Q2HRD4 20-522)
T1 construct: also called HHV8 KCP
T1 sequence: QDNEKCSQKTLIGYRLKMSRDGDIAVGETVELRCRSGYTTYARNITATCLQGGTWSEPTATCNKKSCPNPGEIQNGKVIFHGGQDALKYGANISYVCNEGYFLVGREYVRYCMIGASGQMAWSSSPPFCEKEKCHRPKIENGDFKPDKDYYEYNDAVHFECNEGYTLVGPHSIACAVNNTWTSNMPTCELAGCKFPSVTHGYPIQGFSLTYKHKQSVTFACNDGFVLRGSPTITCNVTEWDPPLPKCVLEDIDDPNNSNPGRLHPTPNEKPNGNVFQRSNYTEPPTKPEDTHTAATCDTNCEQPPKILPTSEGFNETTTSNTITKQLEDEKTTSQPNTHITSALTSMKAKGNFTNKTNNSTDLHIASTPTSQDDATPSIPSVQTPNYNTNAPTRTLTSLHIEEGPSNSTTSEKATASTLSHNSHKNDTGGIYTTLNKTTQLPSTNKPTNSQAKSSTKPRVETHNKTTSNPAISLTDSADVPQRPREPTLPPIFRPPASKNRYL

T2: VZV protein gC, soluble (captured on beads or assayed directly in supernatants) (Varicella zoster virus, UniProt P09256 54-559)
T2 construct: also called VZV gC
T2 sequence: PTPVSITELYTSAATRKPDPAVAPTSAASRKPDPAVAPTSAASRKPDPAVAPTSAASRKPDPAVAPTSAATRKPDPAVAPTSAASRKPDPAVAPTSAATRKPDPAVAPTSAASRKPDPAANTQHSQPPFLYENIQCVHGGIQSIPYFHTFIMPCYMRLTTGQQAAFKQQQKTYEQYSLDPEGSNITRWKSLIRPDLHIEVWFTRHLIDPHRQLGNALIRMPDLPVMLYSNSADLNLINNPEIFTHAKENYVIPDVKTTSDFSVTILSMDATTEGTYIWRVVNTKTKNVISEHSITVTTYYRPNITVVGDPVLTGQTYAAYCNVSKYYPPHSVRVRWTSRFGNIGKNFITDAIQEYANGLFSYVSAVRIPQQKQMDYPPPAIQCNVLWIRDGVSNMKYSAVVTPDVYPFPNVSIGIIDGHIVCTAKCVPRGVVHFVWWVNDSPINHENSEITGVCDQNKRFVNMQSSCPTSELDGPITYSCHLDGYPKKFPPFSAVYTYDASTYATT

T3: MUSK expressed on cells (gD-GPI construct or full-length protein) (human, UniProt O15146 24-869)
T3 construct: whole, on cells
T3 sequence: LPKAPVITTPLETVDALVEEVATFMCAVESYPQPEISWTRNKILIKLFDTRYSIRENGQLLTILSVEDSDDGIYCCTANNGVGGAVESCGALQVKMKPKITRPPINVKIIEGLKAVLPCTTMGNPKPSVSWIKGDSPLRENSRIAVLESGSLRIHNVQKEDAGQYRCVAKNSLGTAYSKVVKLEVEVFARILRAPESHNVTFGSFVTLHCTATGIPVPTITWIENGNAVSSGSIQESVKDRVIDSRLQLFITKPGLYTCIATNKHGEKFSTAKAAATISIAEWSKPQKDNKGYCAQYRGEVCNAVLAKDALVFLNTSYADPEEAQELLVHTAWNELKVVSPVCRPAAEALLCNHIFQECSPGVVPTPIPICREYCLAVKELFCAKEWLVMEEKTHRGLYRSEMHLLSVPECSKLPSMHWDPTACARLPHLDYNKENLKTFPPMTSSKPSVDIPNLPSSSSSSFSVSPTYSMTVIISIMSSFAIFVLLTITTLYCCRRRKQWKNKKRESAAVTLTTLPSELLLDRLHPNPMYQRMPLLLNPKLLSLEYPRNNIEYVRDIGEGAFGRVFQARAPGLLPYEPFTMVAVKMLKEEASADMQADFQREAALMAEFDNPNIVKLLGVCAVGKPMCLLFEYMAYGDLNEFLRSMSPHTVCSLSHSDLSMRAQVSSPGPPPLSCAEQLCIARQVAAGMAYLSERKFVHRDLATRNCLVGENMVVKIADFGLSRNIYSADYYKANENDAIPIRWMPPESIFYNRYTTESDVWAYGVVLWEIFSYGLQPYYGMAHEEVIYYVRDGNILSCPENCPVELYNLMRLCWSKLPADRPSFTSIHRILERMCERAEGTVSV

B1: HAVCR1 expressed on cells (gD-GPI construct or full-length protein) (receptor)
chain: SVKVGGEAGPSVTLPCHYSGAVTSMCWNRGSCSLFTCQNGIVWTNGTHVTYRKDTRYKLLGDLSRRDVSLTIENTAVSDSGVYCCRVEHRGWFNDMKITVSLEIVPPKVTTTPIVTTVPTVTTVRTSTTVPTTTTVPMTTVPTTTVPTTMSIPTTTTVLTTMTVSTTTSVPTTTSIPTTTSVPVTTTVSTFVPPMPLPRQNHEPVATSPSSPQPAETHPTTLQGAIRREPTSSPLYSYTTDGNDTVTESSDGLWNNNQTQLFLEHSLLTANTTKGIYAGVCISVLVLLALLGVIIAKKYFFKKEVQQLSVSFSSLQIKALQNAVEKEVQAEDNIYIENSLYATD
notes: whole, on cells
B2: FLRT3 (in supernatants) (receptor)
chain: KSCPSVCRCDAGFIYCNDRFLTSIPTGIPEDATTLYLQNNQINNAGIPSDLKNLLKVERIYLYHNSLDEFPTNLPKYVKELHLQENNIRTITYDSLSKIPYLEELHLDDNSVSAVSIEEGAFRDSNYLRLLFLSRNHLSTIPWGLPRTIEELRLDDNRISTISSPSLQGLTSLKRLVLDGNLLNNHGLGDKVFFNLVNLTELSLVRNSLTAAPVNLPGTNLRKLYLQDNHINRVPPNAFSYLRQLYRLDMSNNNLSNLPQGIFDDLDNITQLILRNNPWYCGCKMKWVRDWLQSLPVKVNVRGLMCQAPEKVRGMAIKDLNAELFDCKDSGIVSTIQITTAIPNTVYPAQGQWPAPVTKQPDIKNPKLTKDHQTTGSPSRKTITITVKSVTSDTIHISWKLALPMTALRLSWLKLGHSPAFGSITETIVTGERSEYLVTALEPDSPYKVCMVPMETSNLYLFDETPVCIETETAPLRMYNPTTTLNREQEKEPYKNPNLP
B3: LILRB1 (in supernatants) (receptor)
chain: GHLPKPTLWAEPGSVITQGSPVTLRCQGGQETQEYRLYREKKTALWITRIPQELVKKGQFPIPSITWEHAGRYRCYYGSDTAGRSESSDPLELVVTGAYIKPTLSAQPSPVVNSGGNVILQCDSQVAFDGFSLCKEGEDEHPQCLNSQPHARGSSRAIFSVGPVSPSRRWWYRCYAYDSNSPYEWSLPSDLLELLVLGVSKKPSLSVQPGPIVAPEETLTLQCGSDAGYNRFVLYKDGERDFLQLAGAQPQAGLSQANFTLGPVSRSYGGQYRCYGAHNLSSEWSAPSDPLDILIAGQFYDRVSLSVQPGPTVASGENVTLLCQSQGWMQTFLLTKEGAADDPWRLRSTYQSQKYQAEFPMGPVTSAHAGTYRCYGSQSSKPYLLTHPSDPLELVVSGPSGGPSSPTTGPTSTSGPEDQPLTPTGSDPQSGLGRHLGV
B4: ICAM1 expressed on cells (gD-GPI construct or full-length protein) (receptor)
chain: QTSVSPSKVILPRGGSVLVTCSTSCDQPKLLGIETPLPKKELLLPGNNRKVYELSNVQEDSQPMCYSNCPDGQSTAKTFLTVYWTPERVELAPLPSWQPVGKNLTLRCQVEGGAPRANLTVVLLRGEKELKREPAVGEPAEVTTTVLVRRDHHGANFSCRTELDLRPQGLELFENTSAPYQLQTFVLPATPPQLVSPRVLEVDTQGTVVCSLDGLFPVSEAQVHLALGDQRLNPTVTYGNDSFSAKASVSVTAEDEGTQRLTCAVILGNQSQETLQTVTIYSFPAPNVILTKPEVSEGTEVTVKCEAHPRAKVTLNGVPAQPLGPRAQLLLKATPEDNGRSFSCSATLEVAGQLIHKNQTRELRVLYGPRLDERDCPGNWTWPENSQQTPMCQAWGNPLPELKCLKDGTFPLPIGESVTVTRDLEGTYLCRARSTQGEVTRKVTVNVLSPRYEIVIITVVAAAVIMGTAGLSTYLYNRQRKIKKYRLQQAQKGTPMKPNTQATPP
notes: whole, on cells
B5: VZV protein gB, soluble (captured on beads or assayed directly in supernatants) (other)
chain: VSPSSFYESLQVEPTQSEDITRSAHLGDGDEIREAIHKSQDAETKPTFYVCPPPTGSTIVRLEPTRTCPDYHLGKNFTEGIAVVYKENIAAYKFKATVYYKDVIVSTAWAGSSYTQITNRYADRVPIPVSEITDTIDKFGKCSSKATYVRNNHKVEAFNEDKNPQDMPLIASKYNSVGSKAWHTTNDTYMVAGTPGTYRTGTSVNCIIEEVEARSIFPYDSFGLSTGDIIYMSPFFGLRDGAYREHSNYAMDRFHQFEGYRQRDLDTRALLEPAARNFLVTPHLTVGWNWKPKRTEVCSLVKWREVEDVVRDEYAHNFRFTMKTLSTTFISETNEFNLNQIHLSQCVKEEARAIINRIYTTRYNSSHVRTGDIQTYLARGGFVVVFQPLLSNSLARLYLQELVRENTNHSPQKHPTRNTRSRRSVPVELRANRTITTTSSVEFAMLQFTYDHIQEHVNEMLARISSSWCQLQNRERALWSGLFPINPSALASTILDQRVKARILGDVISVSNCPELGSDTRIILQNSMRVSGSTTRCYSRPLISIVSLNGSGTVEGQLGTDNELIMSRDLLEPCVANHKRYFLFGHHYVYYEDYRYVREIAVHDVGMISTYVDLNLTLLKDREFMPLQVYTRDELRDTGLLDYSEIQRRNQMHSLRFYDIDKVVQYDSGTAIMQGMAQFFQGLGTAGQAVGHVVLGATGALLSTVHGFTTFLSNP
notes: also called VZV gB

Experiments:
[1] = molecular target: B5; experiment: cell-based immunofluorescence validation (FIG. 16): gB on beads or in supernatants, HAVCR1 on cells
[2] = molecular target: T1, HHV8 protein KCP expressed on cells …; experiment: cell-based immunofluorescence validation (FIG. 17): receptor in supernatants, KCP on cells
[3] = molecular target: T2, VZV protein gC, soluble (captured on …); experiment: cell-based immunofluorescence validation (FIGS. 14B and 22): soluble gC on cells with ICAM1
[4] = molecular target: T3, MUSK expressed on cells (gD-GPI …); experiment: cell-based immunofluorescence validation (FIG. 15): gB on beads or in supernatants, MUSK on cells

B1: binds [1].

B2: binds [2].

B3: binds [2].

B4: binds [3].

B5: binds [4].
